Data from patent US20230220068A1 (CODIAK BIOSCIENCES, published 2023).

Target: T1, PrX (human, UniProt Q9P2B2)
T1 construct: also called PTGFRN overexpressing exosomes
T1 sequence (scaffold on exosomes, looked up): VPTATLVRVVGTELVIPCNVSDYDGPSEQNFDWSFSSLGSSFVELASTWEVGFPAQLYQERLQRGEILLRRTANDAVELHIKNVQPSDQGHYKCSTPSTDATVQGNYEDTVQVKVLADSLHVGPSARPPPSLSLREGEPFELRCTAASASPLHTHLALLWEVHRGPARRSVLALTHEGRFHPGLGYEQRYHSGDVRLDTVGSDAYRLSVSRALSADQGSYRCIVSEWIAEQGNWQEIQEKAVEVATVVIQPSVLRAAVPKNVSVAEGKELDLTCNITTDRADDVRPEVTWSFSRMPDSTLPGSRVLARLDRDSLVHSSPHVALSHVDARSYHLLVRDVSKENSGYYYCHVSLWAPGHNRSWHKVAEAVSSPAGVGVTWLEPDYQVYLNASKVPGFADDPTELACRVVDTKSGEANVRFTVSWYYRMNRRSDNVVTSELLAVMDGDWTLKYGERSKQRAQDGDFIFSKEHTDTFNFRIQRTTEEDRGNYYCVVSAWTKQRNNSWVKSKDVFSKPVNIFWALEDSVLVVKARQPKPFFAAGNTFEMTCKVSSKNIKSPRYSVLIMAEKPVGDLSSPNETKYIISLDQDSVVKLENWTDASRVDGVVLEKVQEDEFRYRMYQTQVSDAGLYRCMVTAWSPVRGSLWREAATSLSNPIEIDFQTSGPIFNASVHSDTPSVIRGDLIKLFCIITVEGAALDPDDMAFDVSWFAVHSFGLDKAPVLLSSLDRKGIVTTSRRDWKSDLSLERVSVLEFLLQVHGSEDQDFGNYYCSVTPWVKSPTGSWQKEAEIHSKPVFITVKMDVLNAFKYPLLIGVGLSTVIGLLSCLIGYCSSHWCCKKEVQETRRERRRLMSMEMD
Test: Octet, exosomes on mouse SIRPα

B1: mouse SIRPα (receptor, UniProt P97797 32-373, looked up)
chain: KELKVTQPEKSVSVAAGDSTVLNCTLTSLLPVGPIRWYRGVGPSRLLIYSFAGEYVPRIRNVSDTTKRNNMDFSIRISNVTPADAGIYYCVKFQKGSSEPDTEIQSGGGTEVYVLAKPSPPEVSGPADRGIPDQKVNFTCKSHGFSPRNITLKWFKDGQELHPLETTVNPSGKNVSYNISSTVRVVLNSMDVNSKVICEVAHITLDRSPLRGIANLSNFIRVSPTVKVTQQSPTSMNQVNLTCRAERFYPEDLQLIWLENGNVSRNDTPKNLTKNTDGTYNYTSLFLVNSSAHREDVVFTCQVKHDQQPAITRNHTVLGFAHSSDQGSMQTFPDNNATHNWN
Does B1 bind?
Result: no binding
